The text below walks through data of PMC10397247.

Experiment [1] concerns the target T1, P3SH.
T1 chain: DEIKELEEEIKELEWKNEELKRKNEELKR
Kind of experiment: two-hybrid library CCNG1.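 Also: natural log of median RNA to DNA barcode read ratio; higher means stronger binding.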

Experiment [2] concerns the target T2, P4SH.
T2 chain: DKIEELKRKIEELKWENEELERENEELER
In words: two-hybrid library CCNG1.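 Also: natural log of median RNA to DNA barcode read ratio; higher means stronger binding.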

Experiment [3] deals with T3, P5SH.
T3 chain: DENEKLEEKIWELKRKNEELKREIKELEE
In words: two-hybrid library CCNG1.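 Also: natural log of median RNA to DNA barcode read ratio; higher means stronger binding.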

For experiment [4], the target named is T4, P6SH.
T4 chain: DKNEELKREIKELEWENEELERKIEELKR
In words: two-hybrid library CCNG1.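 Also: natural log of median RNA to DNA barcode read ratio; higher means stronger binding.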

The target of experiment [5] is T5, P7SH.
T5 chain: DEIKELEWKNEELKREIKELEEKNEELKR
In words: two-hybrid library CCNG1.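 Also: natural log of median RNA to DNA barcode read ratio; higher means stronger binding.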

Experiment [6] deals with T6, P8SH.
T6 chain: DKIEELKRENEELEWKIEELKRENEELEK
Kind of experiment: two-hybrid library CCNG1.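 Also: natural log of median RNA to DNA barcode read ratio; higher means stronger binding.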

Experiment [7] addresses T7, 4H121-bN.
T7 chain: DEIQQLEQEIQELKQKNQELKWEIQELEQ
Kind of experiment: two-hybrid library CCNG1.

For experiment [8], the target named is T8, 4H182-bN.
T8 chain: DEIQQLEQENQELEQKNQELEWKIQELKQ
In words: two-hybrid library CCNG1.

The target of experiment [9] is T9, 4H2134-bN.
T9 chain: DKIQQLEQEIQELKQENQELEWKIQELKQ
Kind of experiment: two-hybrid library CCNG1.

Experiment [10] concerns the target T10, 4H2143-bN.
T10 chain: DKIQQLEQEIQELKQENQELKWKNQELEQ
In words: two-hybrid library CCNG1.

Experiment [11] deals with T11, 4H2223-bN.
T11 chain: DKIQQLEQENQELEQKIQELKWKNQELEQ
Kind of experiment: two-hybrid library CCNG1.

Experiment [12] has as its target T12, 4H2438-bN.
T12 chain: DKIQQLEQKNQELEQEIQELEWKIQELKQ
Kind of experiment: two-hybrid library CCNG1.

The target in experiment [13] is T13, 4H2473-bN.
T13 chain: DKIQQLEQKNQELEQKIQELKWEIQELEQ
In words: two-hybrid library CCNG1.

In experiment [14] the target is T14, 4H2503-bN.
T14 chain: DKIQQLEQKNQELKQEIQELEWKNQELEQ
Kind of experiment: two-hybrid library CCNG1.

Experiment [15] has as its target T15, 4H2588-bN.
T15 chain: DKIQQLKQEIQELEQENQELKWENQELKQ
Kind of experiment: two-hybrid library CCNG1.

Experiment [16] has as its target T16, 4H2692-bN.
T16 chain: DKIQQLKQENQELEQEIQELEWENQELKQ
In words: two-hybrid library CCNG1.

Experiment [17] concerns the target T17, 4H2717-bN.
T17 chain: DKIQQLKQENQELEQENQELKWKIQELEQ
Kind of experiment: two-hybrid library CCNG1.

Experiment [18] concerns the target T18, 4H2839-bN.
T18 chain: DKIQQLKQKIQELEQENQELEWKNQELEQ
In words: two-hybrid library CCNG1.

The target of experiment [19] is T19, 4H2915-bN.
T19 chain: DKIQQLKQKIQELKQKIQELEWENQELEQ
Kind of experiment: two-hybrid library CCNG1.

Experiment [20] has as its target T20, 4H3057-bN.
T20 chain: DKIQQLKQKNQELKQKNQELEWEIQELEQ
Kind of experiment: two-hybrid library CCNG1.

Experiment [21] concerns the target T21, 4H319-bN.
T21 chain: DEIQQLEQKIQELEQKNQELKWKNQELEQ
Kind of experiment: two-hybrid library CCNG1.

Experiment [22] deals with T22, 4H3277-bN.
T22 chain: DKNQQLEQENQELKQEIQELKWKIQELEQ
Kind of experiment: two-hybrid library CCNG1.

In experiment [23] the target is T23, 4H348-bN.
T23 chain: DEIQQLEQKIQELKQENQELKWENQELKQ
Kind of experiment: two-hybrid library CCNG1.

The target of experiment [24] is T24, 4H3974-bA.
T24 chain: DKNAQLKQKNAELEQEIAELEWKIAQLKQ
Kind of experiment: two-hybrid library CCNG1.

In experiment [25] the target is T25, 4H40-bN.
T25 chain: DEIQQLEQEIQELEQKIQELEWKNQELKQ
In words: two-hybrid library CCNG1.

For experiment [26], the target named is T26, 4H477-bN.
T26 chain: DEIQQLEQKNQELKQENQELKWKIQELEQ
In words: two-hybrid library CCNG1.

Experiment [27] addresses T27, 4H492-bN.
T27 chain: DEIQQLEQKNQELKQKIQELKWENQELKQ
In words: two-hybrid library CCNG1.

Experiment [28] deals with T28, 4H741-bN.
T28 chain: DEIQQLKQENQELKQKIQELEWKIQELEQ
Kind of experiment: two-hybrid library CCNG1.

Experiment [29] addresses T29, Core_NINN-es_KEKK.
T29 chain: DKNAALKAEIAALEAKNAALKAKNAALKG
In words: two-hybrid library CCmax. Particulars: mean of both orientations.

For experiment [30], the target named is T30, Core_IINI-es_KKKE.
T30 chain: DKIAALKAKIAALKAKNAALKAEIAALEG
In words: two-hybrid library CCmax. Conditions: mean of both orientations.

The target in experiment [31] is T31, Core_NINI-es_KEKK.
T31 chain: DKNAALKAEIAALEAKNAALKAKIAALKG
Kind of experiment: two-hybrid library CCmax. Conditions: mean of both orientations.

Experiment [32] addresses T32, Core_INNN-es_KEKK.
T32 chain: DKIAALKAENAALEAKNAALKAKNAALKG
Kind of experiment: two-hybrid library CCmax. Conditions: mean of both orientations.

Experiment [33] deals with T33, P2p.
T33 chain: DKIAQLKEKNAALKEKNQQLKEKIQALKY
Kind of experiment: two-hybrid library CCmax. Conditions: mean of both orientations.

Experiment [34] has as its target T34, 4H1046-bH.
T34 chain: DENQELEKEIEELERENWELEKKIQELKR
In words: two-hybrid library CCNG1. Conditions: mean of both orientations.

For experiment [35], the target named is T35, 4H1072-bH.
T35 chain: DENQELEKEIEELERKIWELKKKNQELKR
In words: two-hybrid library CCNG1.

Experiment [36] concerns the target T36, 4H2568-bH.
T36 chain: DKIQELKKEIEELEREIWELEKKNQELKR
In words: two-hybrid library CCNG1.

Experiment [37] deals with T37, 4H2619-bH.
T37 chain: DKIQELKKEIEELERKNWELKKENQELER
Kind of experiment: two-hybrid library CCNG1.

Experiment [38] deals with T38, 4H2745-bH.
T38 chain: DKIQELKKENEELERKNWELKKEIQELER
Kind of experiment: two-hybrid library CCNG1.

In experiment [39] the target is T39, 4H344-bH.
T39 chain: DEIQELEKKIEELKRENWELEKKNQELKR
In words: two-hybrid library CCNG1.

The target in experiment [40] is T40, 4H363-bH.
T40 chain: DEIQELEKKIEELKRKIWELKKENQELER
In words: two-hybrid library CCNG1.

Experiment [41] has as its target T41, 4H3907-bH.
T41 chain: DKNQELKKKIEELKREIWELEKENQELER
In words: two-hybrid library CCNG1.

The target in experiment [42] is T42, 4H3961-bH.
T42 chain: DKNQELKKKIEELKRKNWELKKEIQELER
In words: two-hybrid library CCNG1. Particulars: mean of both orientations.

The target in experiment [43] is T43, 4H470-bH.
T43 chain: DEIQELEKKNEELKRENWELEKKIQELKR
Kind of experiment: two-hybrid library CCNG1.

Experiment [44] has as its target T44, Core_NNNI-es_KKKE.
T44 chain: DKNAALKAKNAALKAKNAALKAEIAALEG
Kind of experiment: two-hybrid library CCmax. Particulars: mean of both orientations.

Experiment [45] deals with T45, P4S-Cys.
T45 chain: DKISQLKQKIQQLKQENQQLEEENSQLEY
In words: two-hybrid library CCNG1. Conditions: mean of both orientations.

Experiment [46] addresses T46, 4H3162-bA.
T46 chain: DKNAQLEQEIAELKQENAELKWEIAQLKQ
In words: two-hybrid library CCNG1.

For experiment [47], the target named is T47, 4H3175-bA.
T47 chain: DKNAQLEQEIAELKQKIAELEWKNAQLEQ
In words: two-hybrid library CCNG1.

Experiment [48] has as its target T48, 4H3277-bA.
T48 chain: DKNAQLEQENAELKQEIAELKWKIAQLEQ
Kind of experiment: two-hybrid library CCNG1.

Experiment [49] addresses T49, 4H3298-bA.
T49 chain: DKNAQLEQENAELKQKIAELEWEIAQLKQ
In words: two-hybrid library CCNG1.

Experiment [50] has as its target T50, 4H3462-bA.
T50 chain: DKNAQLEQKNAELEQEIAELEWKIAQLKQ
Kind of experiment: two-hybrid library CCNG1.

In experiment [51] the target is T51, 4H348-bA.
T51 chain: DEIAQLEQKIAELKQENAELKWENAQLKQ
In words: two-hybrid library CCNG1.

Experiment [52] concerns the target T52, 4H3497-bA.
T52 chain: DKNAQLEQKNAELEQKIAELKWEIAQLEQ
Kind of experiment: two-hybrid library CCNG1.

Experiment [53] addresses T53, 4H3613-bA.
T53 chain: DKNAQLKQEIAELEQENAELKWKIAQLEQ
In words: two-hybrid library CCNG1.

Experiment [54] concerns the target T54, 4H3628-bA.
T54 chain: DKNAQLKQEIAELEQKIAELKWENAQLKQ
In words: two-hybrid library CCNG1.

The target of experiment [55] is T55, 4H3631-bA.
T55 chain: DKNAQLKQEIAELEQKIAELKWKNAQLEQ
Kind of experiment: two-hybrid library CCNG1.

In experiment [56] the target is T56, 4H3926-bA.
T56 chain: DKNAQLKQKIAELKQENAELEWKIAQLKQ
Kind of experiment: two-hybrid library CCNG1.

Experiment [57] addresses T57, 4H591-bA.
T57 chain: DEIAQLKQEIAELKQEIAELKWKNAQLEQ
In words: two-hybrid library CCNG1.

Experiment [58] concerns the target T58, 4H626-bA.
T58 chain: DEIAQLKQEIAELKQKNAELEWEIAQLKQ
In words: two-hybrid library CCNG1.

For experiment [59], the target named is T59, 4H906-bA.
T59 chain: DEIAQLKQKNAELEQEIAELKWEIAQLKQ
In words: two-hybrid library CCNG1.

Experiment [60] deals with T60, P10A-bS.
T60 chain: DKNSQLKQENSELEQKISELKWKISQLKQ
In words: two-hybrid library CCNG1.

For experiment [61], the target named is T61, P2bHq.
T61 chain: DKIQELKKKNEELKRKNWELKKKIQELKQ
Kind of experiment: two-hybrid library CCNG1.

Consider DEIKELEEEIKELEWKNEELKRKNEELKR [P3SH], for which the interaction score in [1] is 0.764; in experiment [2], 1.95; in experiment [3] it was 0.554; in experiment [4], 0.737; in experiment [5] it was -0.109; in experiment [6], 0.525.
DEIQQLEQEIQELKQKNQELKWEIQELEQ [4H121-bN]: the interaction score was -0.707 in experiment [7]; -0.748 in experiment [8]; 1.52 in experiment [9]; -0.718 in [10]; -0.986 in experiment [11]; 1.48 in experiment [12]. Further, the interaction score in experiment [13] was -0.436; in experiment [14], -1.29; in [15], -0.5; in [16], -1.02; in experiment [17] it was -0.302; in experiment [18], -0.184. Further, the interaction score in experiment [19] was -0.211; in [20] it was -1.3; in [21] it was -1.04; in [22], -1.33; in [23], -0.398; in experiment [24], 1.19. For the same molecule, the interaction score in experiment [25] was -0.563; in [26] it was -1.35; in [27] it was -1.42; in experiment [28] it was -1.39.
In turn, DENAALEAKIAALKAENAALEAENAALEG [Core_NINN-es_EKEE] registered an interaction score in [29] of 1.5.
DEIAALEAEIAALEAENAALEAKIAALKG [Core_IINI-es_EEEK]: the interaction score in [30] stood at 2.3.
In turn, DENAALEAKIAALKAENAALEAEIAALEG [Core_NINI-es_EKEE] yielded an interaction score in experiment [31] of 2.15.
In turn, DEIAALEAKNAALKAENAALEAENAALEG [Core_INNN-es_EKEE] showed an interaction score in experiment [32] of 1.91.
DEIQALEEENAQLEQENAALEEEIAQLEY [P1p] displayed an interaction score in experiment [33] of 1.64.
As to DENQELEKEIEELERENWELEKKIQELKR [4H1046-bH], the interaction score in experiment [34] is 0.287; in experiment [35], -0.477; in experiment [36], 1.03; in experiment [37], 0.439; in [38], 0.917; in experiment [39], 1.33. Besides, the interaction score is -1.16 in experiment [40], -0.121 in experiment [41], -0.386 in [42] and 0.405 in [43].
In experiment [44], DENAALEAENAALEAENAALEAKIAALKG [Core_NNNI-es_EEEK] displayed an interaction score of 2.16.
Turning to DEIQQLEEEISQLEQKNSQLKEKNQQLKY [Cys-P3S], the interaction score in experiment [45] was 1.92.
Turning to DKNAQLEQEIAELKQENAELKWEIAQLKQ [4H3162-bA], the interaction score in experiment [46] is 1.11; in [47], -0.314; in [48] it was -0.654; in [49], -0.43; in [50], -0.481; in experiment [51], -2.08. For the same molecule, the interaction score in [52] was -0.885; in experiment [53], 0.452; in experiment [54] it was -0.274; in experiment [55] it was -1.48; in [56], 1.8; in experiment [57] it was -1.2. The interaction score was -0.331 in [58], -1.01 in experiment [59], -0.255 in [60] and -0.679 in experiment [61].
